Measured values as given in USRE46585 (LABORATOIRE FRANCAIS DU FRACTIONNEMENT ET DES …, dated 2017).
Changes are numbered by the printed parent chain. Values belong to the binder of their own block, whether it stands above or below them.

Key:
FcRn-p3 fusion protein [1] = target: T1, FcRn-p3 fusion protein (human, UniProt P55899 24-297; P61769 21-119); assay: phage ELISA pH6 (est.)
T1 construct: baculovirus expressed; coated on ELISA wells; not shown: amino terminal part of bacteriophage p3 protein and CVDE protein

FcRn-p3 fusion protein [2] = target: T1, FcRn-p3 fusion protein; assay: phage ELISA pH6

Ratio/FWT (FcRn-p3 fusion protein [1]): 6.3 fold
Ratio/Fc-H (FcRn-p3 fusion protein [2]): 2 fold
B4: T3A_47 (other)
chain: CPPCPAPELLGGPSVFLFPPKPKDTLMISRTPEVTCVVVDVSHEDPEVKFNWYVDGVEVHNAKTKPREEQYNSTYRVVSVLPVLHQDWLNGKEYKCKVSNKALPAPIEKTISKAKGQPREPQVYTLPPSRDELTKNQVSLTCLVKGFYPSDITVEWESNGQPENNYKTTPPMLDSDGSFFLYSKLTVDKSRWQQGNVFSCSVMHEALHNHYTQKSLSLSPGK
notes: EU numbering

Ratio/FWT (FcRn-p3 fusion protein [1]): 9.7 fold
Ratio/Fc-H (FcRn-p3 fusion protein [2]): 3 fold
B8: T4A_18 (other)
chain: B4 chain with P82T, N90D, Q117R, T153A, E157V, M172V, N209Y
notes: EU numbering

Ratio/FWT (FcRn-p3 fusion protein [1]): 9.7 fold
Ratio/Fc-H (FcRn-p3 fusion protein [2]): 3 fold
B9: T4A_04 (other)
chain: B4 chain with P82T, N90D, A105V, T153A, E157V, M172V, N209Y
notes: EU numbering

Ratio/FWT (FcRn-p3 fusion protein [1]): 5.5 fold
Ratio/Fc-H (FcRn-p3 fusion protein [2]): 1.7 fold
B11: M3B_04 (other)
chain: B4 chain with F16L, V39E, P82T, Q117R, T153V, M172V
notes: EU numbering

Ratio/FWT (FcRn-p3 fusion protein [1]): 4.5 fold
Ratio/Fc-H (FcRn-p3 fusion protein [2]): 1.4 fold
B12: T3A_43 (other)
chain: B4 chain with V39E, P82T, E120G, T153V, M172V
notes: EU numbering

Ratio/FWT (FcRn-p3 fusion protein [1]): 3.7 fold
Ratio/Fc-H (FcRn-p3 fusion protein [2]): 1.1 fold
B14: M3A_35 (other)
chain: B4 chain with V39E, P82T, N90D, T153A, P171L, M172V
notes: EU numbering

Ratio/FWT (FcRn-p3 fusion protein [1]): 7.2 fold
Ratio/Fc-H (FcRn-p3 fusion protein [2]): 2.3 fold
B15: T3A_41 (other)
chain: B4 chain with V39E, T153V, M172V
notes: EU numbering

Ratio/FWT (FcRn-p3 fusion protein [1]): 3.8 fold
Ratio/Fc-H (FcRn-p3 fusion protein [2]): 1.2 fold
B18: M3B_23 (other)
chain: B4 chain with F16L, V39E, T153A, M172V
notes: EU numbering

Ratio/FWT (FcRn-p3 fusion protein [1]): 11.4 fold
Ratio/Fc-H (FcRn-p3 fusion protein [2]): 3.6 fold
B20: T4A_19 (other)
chain: B4 chain with T153V, M172V, N209S
notes: EU numbering

More lines, now with the values behind:

B1: M3A_34 (other)
chain: B4 chain with S42N, P82N, K145R, T153V, M172V
notes: EU numbering
Ratio/FWT (FcRn-p3 fusion protein [1]): 4.3 fold
Ratio/Fc-H (FcRn-p3 fusion protein [2]): 1.3 fold

B2: T3A_10 (other)
chain: B4 chain with P82T, N90D, A105V, T153A, N164K, M172V, N209Y
notes: EU numbering
Ratio/FWT (FcRn-p3 fusion protein [1]): 7.8 fold
Ratio/Fc-H (FcRn-p3 fusion protein [2]): 2.4 fold

B3: T3A_22 (other)
chain: B4 chain with F16L, V39E, P82T, T153V, M172V, N209S
notes: EU numbering
Ratio/FWT (FcRn-p3 fusion protein [1]): 12.2 fold
Ratio/Fc-H (FcRn-p3 fusion protein [2]): 3.8 fold

B5: T3A_16 (other)
chain: B4 chain with F16L, V39E, T153V, M172V
notes: EU numbering
Ratio/FWT (FcRn-p3 fusion protein [1]): 7.4 fold
Ratio/Fc-H (FcRn-p3 fusion protein [2]): 2.3 fold

B6: T3A_13 (other)
chain: B4 chain with P82T, N90D, V144A, T153A, M172V, N209Y
notes: EU numbering
Ratio/FWT (FcRn-p3 fusion protein [1]): 5.6 fold
Ratio/Fc-H (FcRn-p3 fusion protein [2]): 1.8 fold

B7: T3A_34 (other)
chain: B4 chain with V39E, P82T, P127S, T153V, M172V
notes: EU numbering
Ratio/FWT (FcRn-p3 fusion protein [1]): 4.6 fold
Ratio/Fc-H (FcRn-p3 fusion protein [2]): 1.4 fold

B10: T3A_15 (other)
chain: B4 chain with V39E, P82T, T153V, T169A, M172V, F179L, N209S
notes: EU numbering
Ratio/FWT (FcRn-p3 fusion protein [1]): 8.9 fold
Ratio/Fc-H (FcRn-p3 fusion protein [2]): 2.8 fold

B13: T3A_01 (other)
chain: B4 chain with V39E, T153V, M172V, N196T
notes: EU numbering
Ratio/FWT (FcRn-p3 fusion protein [1]): 7.8 fold
Ratio/Fc-H (FcRn-p3 fusion protein [2]): 2.4 fold

B16: T3A_30 (other)
chain: B4 chain with V39E, P82T, T153V, M172V, V197A
notes: EU numbering
Ratio/FWT (FcRn-p3 fusion protein [1]): 3.4 fold
Ratio/Fc-H (FcRn-p3 fusion protein [2]): 1.1 fold

B17: T3A_11 (other)
chain: B4 chain with P66S, P82T, N90D, A102V, A105V, T153A, M172V, N209Y
notes: EU numbering
Ratio/FWT (FcRn-p3 fusion protein [1]): 4 fold
Ratio/Fc-H (FcRn-p3 fusion protein [2]): 1.3 fold

B19: T3A_08 (other)
chain: B4 chain with V39E, P82T, T153V, M172V, F179L
notes: EU numbering
Ratio/FWT (FcRn-p3 fusion protein [1]): 3.5 fold
Ratio/Fc-H (FcRn-p3 fusion protein [2]): 1.1 fold
